Results from patent publication US20240174727A1, “LONG-ACTING NATRIURETIC PEPTIDES AND USES THEREOF” (Eli Lilly and Company, priority 2022, published 2024).
Numbered stars: 1 amine (or outer) side, 2 acyl side, 3 side chain; on linkers, the order of the positions; unused ones are H or OH. Bridge positions count the residues as written; N and C are the ends. Square brackets hold non-standard residues; d marks the D form. * marks the point of attachment. C20 diacid = O=C(O)CCCCCCCCCCCCCCCCCCC(=O)*; γGlu = O=C(O)[C@H](CCC(=O)[*:2])N[*:1]; 4Pal = N[C@@H](Cc1ccncc1)C(=O)O

T1: rat NPRA (rat, UniProt P18910 29-1057)
T1 sequence (looked up): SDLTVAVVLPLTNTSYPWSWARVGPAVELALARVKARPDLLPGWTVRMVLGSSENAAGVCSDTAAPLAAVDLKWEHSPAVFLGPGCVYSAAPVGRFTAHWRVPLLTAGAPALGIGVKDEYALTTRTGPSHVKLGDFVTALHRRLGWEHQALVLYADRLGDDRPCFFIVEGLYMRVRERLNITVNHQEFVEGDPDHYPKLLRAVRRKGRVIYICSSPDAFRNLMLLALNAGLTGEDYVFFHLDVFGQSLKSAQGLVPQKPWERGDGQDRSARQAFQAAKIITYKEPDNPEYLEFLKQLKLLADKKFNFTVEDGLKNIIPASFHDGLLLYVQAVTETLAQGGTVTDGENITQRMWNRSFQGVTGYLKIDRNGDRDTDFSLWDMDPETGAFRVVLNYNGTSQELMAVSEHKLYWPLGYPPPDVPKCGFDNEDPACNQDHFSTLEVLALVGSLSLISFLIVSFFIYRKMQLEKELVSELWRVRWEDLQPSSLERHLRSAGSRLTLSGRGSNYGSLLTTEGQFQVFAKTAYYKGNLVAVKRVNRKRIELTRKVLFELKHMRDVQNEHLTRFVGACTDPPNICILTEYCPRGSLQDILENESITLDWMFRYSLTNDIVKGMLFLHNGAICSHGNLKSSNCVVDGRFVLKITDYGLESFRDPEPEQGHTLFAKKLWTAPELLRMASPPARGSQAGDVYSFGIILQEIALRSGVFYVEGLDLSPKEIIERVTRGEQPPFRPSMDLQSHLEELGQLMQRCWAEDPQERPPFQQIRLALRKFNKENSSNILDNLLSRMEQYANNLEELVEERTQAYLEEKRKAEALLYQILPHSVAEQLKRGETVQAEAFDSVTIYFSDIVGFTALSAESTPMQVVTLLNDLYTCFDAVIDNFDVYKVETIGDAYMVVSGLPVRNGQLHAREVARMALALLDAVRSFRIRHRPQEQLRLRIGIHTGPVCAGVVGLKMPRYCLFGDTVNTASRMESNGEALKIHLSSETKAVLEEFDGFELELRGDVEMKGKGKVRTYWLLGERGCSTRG

T2: human NPRA (human, UniProt P16066 33-1061)
T2 sequence (looked up): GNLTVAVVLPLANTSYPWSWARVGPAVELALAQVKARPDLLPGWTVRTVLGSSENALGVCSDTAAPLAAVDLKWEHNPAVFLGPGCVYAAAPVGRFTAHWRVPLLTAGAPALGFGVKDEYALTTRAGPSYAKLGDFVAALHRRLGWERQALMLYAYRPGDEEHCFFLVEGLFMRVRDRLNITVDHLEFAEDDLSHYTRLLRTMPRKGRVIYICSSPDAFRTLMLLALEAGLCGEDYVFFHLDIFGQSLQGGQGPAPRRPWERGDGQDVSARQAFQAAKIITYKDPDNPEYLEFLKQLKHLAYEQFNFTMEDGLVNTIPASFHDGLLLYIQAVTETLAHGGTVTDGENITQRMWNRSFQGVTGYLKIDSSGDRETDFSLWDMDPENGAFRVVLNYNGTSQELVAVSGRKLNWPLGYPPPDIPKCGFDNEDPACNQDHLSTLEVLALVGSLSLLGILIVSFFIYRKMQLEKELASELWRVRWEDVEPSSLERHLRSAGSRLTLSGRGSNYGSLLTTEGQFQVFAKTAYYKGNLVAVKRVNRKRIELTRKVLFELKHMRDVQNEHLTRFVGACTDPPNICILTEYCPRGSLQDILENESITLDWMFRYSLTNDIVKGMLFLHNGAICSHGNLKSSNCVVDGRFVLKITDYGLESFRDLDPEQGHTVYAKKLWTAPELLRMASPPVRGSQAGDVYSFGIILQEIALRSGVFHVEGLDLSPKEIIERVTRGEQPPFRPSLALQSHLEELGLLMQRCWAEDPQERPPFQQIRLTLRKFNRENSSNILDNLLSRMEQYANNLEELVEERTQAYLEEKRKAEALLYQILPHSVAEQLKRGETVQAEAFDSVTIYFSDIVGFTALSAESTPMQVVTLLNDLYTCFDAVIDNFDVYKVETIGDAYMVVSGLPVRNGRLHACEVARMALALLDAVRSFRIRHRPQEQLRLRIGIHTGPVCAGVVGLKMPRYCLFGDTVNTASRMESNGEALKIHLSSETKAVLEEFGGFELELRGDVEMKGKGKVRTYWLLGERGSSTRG


Tests used:
[1] = target: T1, rat NPRA; test: cell-based or functional assay
[2] = target: T2, human NPRA; test: cell-based or functional assay

Row | Binder | cGMP Assay (EC50, pM) w/BSA [1] | cGMP Assay (EC50, pM) w/Casein [1] | cGMP Assay (EC50, pM) w/BSA [2] | cGMP Assay (EC50, pM) w/Casein [2]
1 | {C20 diacid}-[γGlu]EKEKEKGS[4Pal]RRSSCFGGRIDRIGAQSGLGCNSFR[4Pal]-NH2 (disulfide 15-31; SMILES CC[C@H](C)[C@@H]1NC(=O)[C@H](CCCNC(=N)N)NC(=O)[C@H](CC(=O)O)NC(=O)[C@H]([C@@H](C)CC)NC(=O)[C@H](CCCNC(=N)N)NC(=O)CNC(=O)CNC(=O)[C@H](Cc2ccccc2)NC(=O)[C@@H](NC(=O)[C@H](CO)NC(=O)[C@H](CO)NC(=O)[C@H](CCCNC(=N)N)NC(=O)[C@H](CCCNC(=N)N)NC(=O)[C@H](Cc2ccncc2)NC(=O)[C@H](CO)NC(=O)CNC(=O)[C@H](CCCCN)NC(=O)[C@H](CCC(=O)O)NC(=O)[C@H](CCCCN)NC(=O)[C@H](CCC(=O)O)NC(=O)[C@H](CCCCN)NC(=O)[C@H](CCC(=O)O)NC(=O)CC[C@H](NC(=O)CCCCCCCCCCCCCCCCCCC(=O)O)C(=O)O)CSSC[C@@H](C(=O)N[C@@H](CC(N)=O)C(=O)N[C@@H](CO)C(=O)N[C@@H](Cc2ccccc2)C(=O)N[C@@H](CCCNC(=N)N)C(=O)N[C@@H](Cc2ccncc2)C(N)=O)NC(=O)CNC(=O)[C@H](CC(C)C)NC(=O)CNC(=O)[C@H](CO)NC(=O)[C@H](CCC(N)=O)NC(=O)[C@H](C)NC(=O)CNC1=O) [Example 15] | 32600 pM | 254 pM | 57300 pM | 912 pM
2 | {C20 diacid}-[γGlu]EKEKEKGSLRRSSCFGGRIDRIGA[4Pal]SGLGCNSFR[4Pal]-NH2 (disulfide 15-31; SMILES CC[C@H](C)[C@@H]1NC(=O)[C@H](CCCNC(=N)N)NC(=O)[C@H](CC(=O)O)NC(=O)[C@H]([C@@H](C)CC)NC(=O)[C@H](CCCNC(=N)N)NC(=O)CNC(=O)CNC(=O)[C@H](Cc2ccccc2)NC(=O)[C@@H](NC(=O)[C@H](CO)NC(=O)[C@H](CO)NC(=O)[C@H](CCCNC(=N)N)NC(=O)[C@H](CCCNC(=N)N)NC(=O)[C@H](CC(C)C)NC(=O)[C@H](CO)NC(=O)CNC(=O)[C@H](CCCCN)NC(=O)[C@H](CCC(=O)O)NC(=O)[C@H](CCCCN)NC(=O)[C@H](CCC(=O)O)NC(=O)[C@H](CCCCN)NC(=O)[C@H](CCC(=O)O)NC(=O)CC[C@H](NC(=O)CCCCCCCCCCCCCCCCCCC(=O)O)C(=O)O)CSSC[C@@H](C(=O)N[C@@H](CC(N)=O)C(=O)N[C@@H](CO)C(=O)N[C@@H](Cc2ccccc2)C(=O)N[C@@H](CCCNC(=N)N)C(=O)N[C@@H](Cc2ccncc2)C(N)=O)NC(=O)CNC(=O)[C@H](CC(C)C)NC(=O)CNC(=O)[C@H](CO)NC(=O)[C@H](Cc2ccncc2)NC(=O)[C@H](C)NC(=O)CNC1=O) [Example 12] | 85500 pM | 670 pM | 109000 pM | 1520 pM
3 | {C20 diacid}-[γGlu]EKEKEKGS[4Pal]RRSSCFGGRIDRIGA[4Pal]SGLGCNSFRY-NH2 (disulfide 15-31; SMILES CC[C@H](C)[C@@H]1NC(=O)[C@H](CCCNC(=N)N)NC(=O)[C@H](CC(=O)O)NC(=O)[C@H]([C@@H](C)CC)NC(=O)[C@H](CCCNC(=N)N)NC(=O)CNC(=O)CNC(=O)[C@H](Cc2ccccc2)NC(=O)[C@@H](NC(=O)[C@H](CO)NC(=O)[C@H](CO)NC(=O)[C@H](CCCNC(=N)N)NC(=O)[C@H](CCCNC(=N)N)NC(=O)[C@H](Cc2ccncc2)NC(=O)[C@H](CO)NC(=O)CNC(=O)[C@H](CCCCN)NC(=O)[C@H](CCC(=O)O)NC(=O)[C@H](CCCCN)NC(=O)[C@H](CCC(=O)O)NC(=O)[C@H](CCCCN)NC(=O)[C@H](CCC(=O)O)NC(=O)CC[C@H](NC(=O)CCCCCCCCCCCCCCCCCCC(=O)O)C(=O)O)CSSC[C@@H](C(=O)N[C@@H](CC(N)=O)C(=O)N[C@@H](CO)C(=O)N[C@@H](Cc2ccccc2)C(=O)N[C@@H](CCCNC(=N)N)C(=O)N[C@@H](Cc2ccc(O)cc2)C(N)=O)NC(=O)CNC(=O)[C@H](CC(C)C)NC(=O)CNC(=O)[C@H](CO)NC(=O)[C@H](Cc2ccncc2)NC(=O)[C@H](C)NC(=O)CNC1=O) [Example 14] | 37800 pM | 1170 pM | 27700 pM | 685 pM
4 | {C20 diacid}-[γGlu]EKEKEKGSHRRSSCFHGRIDRIHAQSGLGCNSFRH-NH2 (disulfide 15-31; SMILES CC[C@H](C)[C@@H]1NC(=O)[C@H](CCCNC(=N)N)NC(=O)[C@H](CC(=O)O)NC(=O)[C@H]([C@@H](C)CC)NC(=O)[C@H](CCCNC(=N)N)NC(=O)CNC(=O)[C@H](Cc2c[nH]cn2)NC(=O)[C@H](Cc2ccccc2)NC(=O)[C@@H](NC(=O)[C@H](CO)NC(=O)[C@H](CO)NC(=O)[C@H](CCCNC(=N)N)NC(=O)[C@H](CCCNC(=N)N)NC(=O)[C@H](Cc2c[nH]cn2)NC(=O)[C@H](CO)NC(=O)CNC(=O)[C@H](CCCCN)NC(=O)[C@H](CCC(=O)O)NC(=O)[C@H](CCCCN)NC(=O)[C@H](CCC(=O)O)NC(=O)[C@H](CCCCN)NC(=O)[C@H](CCC(=O)O)NC(=O)CC[C@H](NC(=O)CCCCCCCCCCCCCCCCCCC(=O)O)C(=O)O)CSSC[C@@H](C(=O)N[C@@H](CC(N)=O)C(=O)N[C@@H](CO)C(=O)N[C@@H](Cc2ccccc2)C(=O)N[C@@H](CCCNC(=N)N)C(=O)N[C@@H](Cc2c[nH]cn2)C(N)=O)NC(=O)CNC(=O)[C@H](CC(C)C)NC(=O)CNC(=O)[C@H](CO)NC(=O)[C@H](CCC(N)=O)NC(=O)[C@H](C)NC(=O)[C@H](Cc2c[nH]cn2)NC1=O) [Example 16] | 480000 pM | 4070 pM | 54700 pM | 807 pM
5 | {C20 diacid}-[γGlu]EKEKEKGSLRRSSCF[4Pal]GRIDRIGAQSGLGCNSFRY-NH2 (disulfide 15-31; SMILES CC[C@H](C)[C@@H]1NC(=O)[C@H](CCCNC(=N)N)NC(=O)[C@H](CC(=O)O)NC(=O)[C@H]([C@@H](C)CC)NC(=O)[C@H](CCCNC(=N)N)NC(=O)CNC(=O)[C@H](Cc2ccncc2)NC(=O)[C@H](Cc2ccccc2)NC(=O)[C@@H](NC(=O)[C@H](CO)NC(=O)[C@H](CO)NC(=O)[C@H](CCCNC(=N)N)NC(=O)[C@H](CCCNC(=N)N)NC(=O)[C@H](CC(C)C)NC(=O)[C@H](CO)NC(=O)CNC(=O)[C@H](CCCCN)NC(=O)[C@H](CCC(=O)O)NC(=O)[C@H](CCCCN)NC(=O)[C@H](CCC(=O)O)NC(=O)[C@H](CCCCN)NC(=O)[C@H](CCC(=O)O)NC(=O)CC[C@H](NC(=O)CCCCCCCCCCCCCCCCCCC(=O)O)C(=O)O)CSSC[C@@H](C(=O)N[C@@H](CC(N)=O)C(=O)N[C@@H](CO)C(=O)N[C@@H](Cc2ccccc2)C(=O)N[C@@H](CCCNC(=N)N)C(=O)N[C@@H](Cc2ccc(O)cc2)C(N)=O)NC(=O)CNC(=O)[C@H](CC(C)C)NC(=O)CNC(=O)[C@H](CO)NC(=O)[C@H](CCC(N)=O)NC(=O)[C@H](C)NC(=O)CNC1=O) [Example 13] | 24000 pM | 241 pM | 145000 pM | 1920 pM
